Laboratory results from article PMC4499135.

Columns and labels:
Assay in all cases: EMSA
TRF1 = conditions: 20 mM Hepes pH 7.9, 100 mM NaCl, 50 mM KCl, 1 mM MgCl2, 0.1 mM EDTA, 1 mM DTT, 5% glycerol, 0.5 mg/ml BSA, 0.1% NP-40, chicken erythrocyte nucleosome carrier …
TRF2AΔB = conditions: 20 mM Hepes pH 7.9, 100 mM NaCl, 50 mM KCl, 1 mM MgCl2, 0.1 mM EDTA, 1 mM DTT, 5% glycerol, 0.5 mg/ml BSA, 0.1% NP-40, chicken erythrocyte nucleosome carrier …
TRF2 = conditions: 20 mM Hepes pH 7.9, 100 mM NaCl, 50 mM KCl, 1 mM MgCl2, 0.1 mM EDTA, 1 mM DTT, 5% glycerol, 0.5 mg/ml BSA, 0.1% NP-40, chicken erythrocyte nucleosome carrier …
TRF2ΔB = conditions: 20 mM Hepes pH 7.9, 100 mM NaCl, 50 mM KCl, 1 mM MgCl2, 0.1 mM EDTA, 1 mM DTT, 5% glycerol, 0.5 mg/ml BSA, 0.1% NP-40, chicken erythrocyte nucleosome carrier …
TRF1-Myb = conditions: histone octamer, salt dilution; 20 mM Hepes pH 7.9, 100 mM NaCl, 50 mM KCl, 1 mM MgCl2, 0.1 mM EDTA, 1 mM DTT, 5% glycerol, 0.5 mg/ml BSA, 0.1% NP-40, chicken erythrocyte nucleosome carrier …
TRF2-Myb = conditions: histone octamer, salt dilution; 20 mM Hepes pH 7.9, 100 mM NaCl, 50 mM KCl, 1 mM MgCl2, 0.1 mM EDTA, 1 mM DTT, 5% glycerol, 0.5 mg/ml BSA, 0.1% NP-40, chicken erythrocyte nucleosome carrier …
[1] = histone tails removed by trypsin
[2] = intact histone octamer, scale: fold higher affinity vs naked Tel2-601-Tel2

**Q.** With Tel2-601-Tel2 tailless NCP as the substance, how does the binding signal (fold lower affinity vs intact NCP) (TRF1; [1]) read?
**A.** 3

**Q.** What about the binding signal (fold lower affinity vs intact NCP) (TRF2AΔB; [1]) of the same substance?
**A.** 3

**Q.** What about the binding signal (fold higher affinity vs intact NCP) (TRF2; [1]) of the same substance?
**A.** 2

**Q.** And the binding signal (fold lower affinity vs intact NCP) (TRF2ΔB; [1])?
**A.** 2

**Q.** Which binding signal (fold lower affinity vs naked Tel8-L) (TRF1-Myb) does the source give for Tel8-L NCP here?
**A.** 11

**Q.** What about the binding signal (fold lower affinity vs naked Tel8-L) (TRF2-Myb) of the same substance?
**A.** 13

**Q.** What about the binding signal (fold lower affinity vs naked Tel8-L) (TRF2; C1/2 extrapolated, 3 experiments, histone octamer, salt dilution) of the same substance?
**A.** 100

**Q.** Tel2-601-Tel2 NCP was tested. Which binding signal (TRF1; [2]) did it give?
**A.** 3

**Q.** And the binding signal (TRF2AΔB; [2])?
**A.** 2

**Q.** And the binding signal (TRF2; intact histone octamer, scale: fold lower affinity vs naked Tel2-601-Tel2)?
**A.** 2

**Q.** And the binding signal (TRF2ΔB; [2])?
**A.** 3
